From patent publication US20170306018A1 (Bristol-Myers Squibb, published 2017)
Where “and” joins values, the source holds several entries; their conditions need not be identical. Equal values may be shown once.

Experiments:
human ROR1 [1] = target: T1, human ROR1 (human, UniProt Q01973 30-937); experiment: flow cytometry on SK-OV-3 cells (extrapolated value)
T1 construct: Endogenous ROR1 on primary B-CLL cells, RPMI8226, Rec-1, SK-OV-3 and PA-1 cells; also called tyrosine-protein kinase transmembrane receptor ROR1; neurotrophic tyrosine kinase, receptor-related 1
T1 sequence (Q01973 30-937 limits assumed): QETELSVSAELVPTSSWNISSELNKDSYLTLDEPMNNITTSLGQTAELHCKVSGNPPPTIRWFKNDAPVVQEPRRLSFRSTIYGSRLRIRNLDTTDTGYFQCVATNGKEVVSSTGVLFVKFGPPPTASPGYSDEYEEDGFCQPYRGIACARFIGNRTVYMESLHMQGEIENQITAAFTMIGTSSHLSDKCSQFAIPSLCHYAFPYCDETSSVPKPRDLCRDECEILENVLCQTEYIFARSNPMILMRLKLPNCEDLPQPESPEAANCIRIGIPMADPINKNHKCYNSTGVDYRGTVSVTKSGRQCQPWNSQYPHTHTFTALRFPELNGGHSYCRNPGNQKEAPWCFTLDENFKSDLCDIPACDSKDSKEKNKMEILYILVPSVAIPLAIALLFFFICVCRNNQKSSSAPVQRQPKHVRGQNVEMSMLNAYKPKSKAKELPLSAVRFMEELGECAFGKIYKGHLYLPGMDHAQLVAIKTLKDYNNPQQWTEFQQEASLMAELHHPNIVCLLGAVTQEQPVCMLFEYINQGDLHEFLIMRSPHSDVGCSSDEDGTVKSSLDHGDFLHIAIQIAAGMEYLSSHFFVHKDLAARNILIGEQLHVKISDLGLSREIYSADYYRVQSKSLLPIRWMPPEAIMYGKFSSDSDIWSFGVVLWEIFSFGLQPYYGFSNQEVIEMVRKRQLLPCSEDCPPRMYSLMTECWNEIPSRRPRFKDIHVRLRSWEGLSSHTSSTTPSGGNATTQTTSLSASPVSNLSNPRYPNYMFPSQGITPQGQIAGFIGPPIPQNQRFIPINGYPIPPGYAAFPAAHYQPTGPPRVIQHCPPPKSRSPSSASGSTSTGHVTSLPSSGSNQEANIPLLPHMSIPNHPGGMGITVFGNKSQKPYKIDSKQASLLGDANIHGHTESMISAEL
Protocol: (§1) a) The level of expression of ROR1 was measured on human ovarian cancer cell lines by flow cytometry including PA-1, COLO-704, ES-2, SK-OV-3, and OVCAR-5. Briefly, cells were harvested, washed, counted for viability, resuspended at 50,000 cells/well of a 96-well round bottom plate and incubated with Alexa488-labeled anti human ROR1 antibody for 30 min at 4° C. All ROR1 and isotype control antibodies were titrated and analyzed in final concentration range between 0.01-100 nM (0.0015-15 μg/mL). […] At the end of incubation time, cells were centrifuged (5 min at 350×g), washed twice with FACS buffer, resuspended in 100 ul FACS buffer and analyzed on a CantoII device running FACS Diva software. Expression of ROR1 was then quantified as the median fluorescence intensity (MFI) and graphs showing the MFI in function of ROR1 antibody concentrations were plotted. EC50 values were then measured using Prism software (GraphPad). […] The calculated EC50s for binding of ROR1 Mab1 and ROR1 Mab2 to SK-OV-3 are extrapolated values and may be over- or underestimated. […]

human CD3ε = target: T2, human CD3ε (human, UniProt P07766 23-207); experiment: flow cytometry on Jurkat T cells
T2 construct: whole, on cells; CD3 on human leukemic Jurkat T cells, as part of the TCR/CD3 complex; also called CD3 epsilon
T2 sequence (P07766 23-207): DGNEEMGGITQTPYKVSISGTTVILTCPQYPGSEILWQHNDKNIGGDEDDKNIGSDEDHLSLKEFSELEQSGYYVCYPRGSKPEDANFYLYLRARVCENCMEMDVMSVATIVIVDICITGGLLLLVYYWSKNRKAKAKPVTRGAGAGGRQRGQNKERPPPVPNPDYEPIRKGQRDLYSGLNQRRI
Protocol: Anti-ROR1/anti-CD3 T cell bispecific antibodies generated in Example 5 were analyzed by flow cytometry for their binding to human ovarian cancer cell lines PA-1 and SK-OV-3 and human CD3 expressed on human leukemic T cells Jurkat (ATCC TIB-152). Jurkat T cells were cultured in RPMI1640 medium supplemented with 10% fetal calf serum. Briefly, cultured cells were harvested, counted and cell viability is evaluated using ViCell. Viable cells were then adjusted to 2×10⁶ cells per ml in FACS Stain Buffer (BD Biosciences) containing 0.1% BSA. 100 μl of this cell suspension were further aliquoted per well into a round-bottom 96-well plate. […] After incubation for 30 min at 4° C., cells are centrifuged (5 min, 350×g), washed twice with 150 μl/well BSA-containing FACS Stain Buffer (BD Biosciences), then cells are fixed using 100 ul BD Fixation buffer per well (#BD Biosciences, 554655) at 4° C. for 20 min, resuspended in 120 μl FACS buffer and analyzed using BD FACS CantoII. Binding of the anti-ROR1/anti-CD3 T cell bispecific antibodies to human ovarian cancer cells and T cells were evaluated and the median fluorescence intensity was determined gated on either human ovarian cancer cells or CD3-expressing Jurkat T cells and plotted in histograms and dot plots. […] Median fluorescence intensity for anti-ROR1/anti-CD3 T cell bispecific antibodies in function of antibody concentrations were plotted.

human ROR1 [2] = target: T1, human ROR1; experiment: flow cytometry on PA-1 cells
Protocol: as §1

human ROR1 [3] = target: T1, human ROR1; experiment: flow cytometry on RPMI8226 cells
Protocol: a) ROR1 expression was assessed on primary CD19⁺ CD5⁺ CLL cells by flow cytometry. Briefly, cells were harvested, washed, counted for viability, resuspended at 50 000 cells/well of a 96-well round bottom plate and incubated with Alexa488-labeled anti human ROR1 antibody at 10 μg/ml for 30 min at 4° C. (to prevent internalization). At the end of incubation time, cells were centrifuged (5 min at 350×g), washed twice with FACS buffer, resuspended in 100 ul FACS buffer and analyzed on a CantoII device running FACS Diva software.
b) ROR1 expression was then assessed on B lymphocyte myeloma RPMI8226 cell lines by flow cytometry, using the methods described above.

human ROR1 [4] = target: T1, human ROR1; experiment: cell-based or functional assay

B1: anti-ROR1 IgG1 antibody (ROR1 Mab1) (antibody, V domains shown)
VH: QEQLVESGGRLVTPGGSLTLSCKASGFDFSAYYMSWVRQAPGKGLEWIATIYPSSGKTYYATWVNGRFTISSDNAQNTVDLQMNSLTAADRATYFCARDSYADDGALFNIWGPGTLVTISS
VL: ELVLTQSPSVSAALGSPAKITCTLSSAHKTDTIDWYQQLQGEAPRYLMQVQSDGSYTKRPGVPDRFSGSSSGADRYLIIPSVQADDEADYYCGADYIGGYVFGGGTQLTVTG
notes: Used Alexa488-labelled in some assays; also called anti-ROR1 antibody; anti-ROR1 IgG antibody
Human ROR1 [1]
  EC50: ~4.62 nM and ~0.69 µg/mL
Human CD3ε
  binding result: no binding (tested: 3 nM to 500 nM)
Human ROR1 [2]
  EC50: 0.87 nM and 0.13 µg/mL
Human ROR1 [3]
  EC50: 0.087 nM and 0.013 µg/mL

B2: ROR1 Mab2-TCBcv (bispecific antibody)
heavy 1: not shown
heavy 2: EVKLVESGGGLVKPGGSLKLSCAASGFTFSSYAMSWVRQIPEKRLEWVASISRGGTTYYPDSVKGRFTISRDNVRNILYLQMSSLRSEDTAMYYCGRYDYDGYYAMDYWGQGTSVTVSSASTKGPSVFPLAPSSKSTSGGTAALGCLVEDYFPEPVTVSWNSGALTSGVHTFPAVLQSSGLYSLSSVVTVPSSSLGTQTYICNVNHKPSNTKVDEKVEPKSCDKTHTCPPCPAPEAAGGPSVFLFPPKPKDTLMISRTPEVTCVVVDVSHEDPEVKFNWYVDGVEVHNAKTKPREEQYNSTYRVVSVLTVLHQDWLNGKEYKCKVSNKALGAPIEKTISKAKGQPREPQVCTLPPSRDELTKNQVSLSCAVKGFYPSDIAVEWESNGQPENNYKTTPPVLDSDGSFFLVSKLTVDKSRWQQGNVFSCSVMHEALHNHYTQKSLSLSPGK
light 1: DIKMTQSPSSMYASLGERVTITCKASPDINSYLSWFQQKPGKSPKTLIYRANRLVDGVPSRFSGGGSGQDYSLTINSLEYEDMGIYYCLQYDEFPYTFGGGTKLEMKRTVAAPSVFIFPPSDRKLKSGTASVVCLLNNFYPREAKVQWKVDNALQSGNSQESVTEQDSKDSTYSLSSTLTLSKADYEKHKVYACEVTHQGLSSPVTKSFNRGEC
light 2: EVQLLESGGGLVQPGGSLRLSCAASGFTFSTYAMNWVRQAPGKGLEWVSRIRSKYNNYATYYADSVKGRFTISRDDSKNTLYLQMNSLRAEDTAVYYCVRHGNFGNSYVSWFAYWGQGTLVTVSSASVAAPSVFIFPPSDEQLKSGTASVVCLLNNFYPREAKVQWKVDNALQSGNSQESVTEQDSKDSTYSLSSTLTLSKADYEKHKVYACEVTHQGLSSPVTKSFNRGEC
notes: 2+1 TCB with charge variants, bivalent for ROR1 (Mab2) and monovalent for CD3; The chain set is printed under the name Mab2 ROR1-TCB (2+1); also called Mab2 ROR1-TCBcv; Mab2 ROR1-TCB (2+1)
Human ROR1 [4]
  Mean EC50 (ng/mL), cell lysis of COLO-704 (n = 1), LDH release: 14.3 ng/mL
  Mean EC50 (ng/mL), cell lysis of OVCAR-5 (n = 1), LDH release: 10.7 ng/mL
  Mean EC50 (ng/mL), cell lysis of PA-1 (n = 2), LDH release: 2.9 ng/mL
  Mean EC50 (ng/mL), cell lysis of SKOV-3 (n = 5), LDH release: 141 ng/mL
  Mean EC50 (pM), cell lysis of COLO-704 (n = 1), LDH release: 73.3 pM
  Mean EC50 (pM), cell lysis of OVCAR-5 (n = 1), LDH release: 53.4 pM
  Mean EC50 (pM), cell lysis of PA-1 (n = 2), LDH release, PBMC E:T 10:1: 14.6 pM
  Mean EC50 (pM), cell lysis of SKOV-3 (n = 5), LDH release: 707 pM
Human CD3ε
  binding result: binds

B3: ROR1 Mab2 IgG (antibody, V domains shown)
VH: EVKLVESGGGLVKPGGSLKLSCAASGFTFSSYAMSWVRQIPEKRLEWVASISRGGTTYYPDSVKGRFTISRDNVRNILYLQMSSLRSEDTAMYYCGRYDYDGYYAMDYWGQGTSVTVSS
VL: DIKMTQSPSSMYASLGERVTITCKASPDINSYLSWFQQKPGKSPKTLIYRANRLVDGVPSRFSGGGSGQDYSLTINSLEYEDMGIYYCLQYDEFPYTFGGGTKLEMK
notes: Tested as IgG; also called Mab 4A5
Human ROR1 [1]
  EC50: ~358 nM and ~53.4 µg/mL
Human ROR1 [2]
  EC50: 0.095 µg/mL and 0.64 nM
